Data as given in US20130039933.

B1: TBK1 (protein kinase of the kinase panel) (protein)
chain: MQSTSNHLWLLSDILGQGATANVFRGRHKKTGDLFAIKVFNNISFLRPVDVQMREFEVLKKLNHKNIVKLFAIEEETTTRHKVLIMEFCPCGSLYTVLEEPSNAYGLPESEFLIVLRDVVGGMNHLRENGIVHRDIKPGNIMRVIGEDGQSVYKLTDFGAARELEDDEQFVSLYGTEEYLHPDMYERAVLRKDHQKKYGATVDLWSIGVTFYHAATGSLPFRPFEGPRRNKEVMYKIITGKPSGAISGVQKAENGPIDWSGDMPVSCSLSRGLQVLLTPVLANILEADQEKCWGFDQFFAETSDILHRMVIHVFSLQQMTAHKIYIHSYNTATIFHELVYKQTKIISSNQELIYEGRRLVLEPGRLAQHFPKTTEENPIFVVSREPLNTIGLIYEKISLPKVHPRYDLDGDASMAKAITGVVCYACRIASTLLLYQELMRKGIRWLIELIKDDYNETVHKKTEVVITLDFCIRNIEKTVKVYEKLMKINLEAAELGEISDIHTKLLRLSSSQGTIETSLQDIDSRLSPGGSLADAWAHQEGTHPKDRNVEKLQVLLNCMTEIYYQFKKDKAERRLAYNEEQIHKFDKQKLYYHATKAMTHFTDECVKKYEAFLNKSEEWIRKMLHLRKQLLSLTNQCFDIEEEVSKYQEYTNELQETLPQKMFTASSGIKHTMTPIYPSSNTLVEMTLGMKKLKEEMEGVVKELAENNHILERFGSLTMDGGLRNVDCL
B2: ULK1 (protein)
chain: MEPGRGGTETVGKFEFSRKDLIGHGAFAVVFKGRHREKHDLEVAVKCINKKNLAKSQTLLGKEIKILKELKHENIVALYDFQEMANSVYLVMEYCNGGDLADYLHAMRTLSEDTIRLFLQQIAGAMRLLHSKGIIHRDLKPQNILLSNPAGRRANPNSIRVKIADFGFARYLQSNMMAATLCGSPMYMAPEVIMSQHYDGKADLWSIGTIVYQCLTGKAPFQASSPQDLRLFYEKNKTLVPTIPRETSAPLRQLLLALLQRNHKDRMDFDEFFHHPFLDASPSVRKSPPVPVPSYPSSGSGSSSSSSSTSHLASPPSLGEMQQLQKTLASPADTAGFLHSSRDSGGSKDSSCDTDDFVMVPAQFPGDLVAEAPSAKPPPDSLMCSGSSLVASAGLESHGRTPSPSPPCSSSPSPSGRAGPFSSSRCGASVPIPVPTQVQNYQRIERNLQSPTQFQTPRSSAIRRSGSTSPLGFARASPSPPAHAEHGGVLARKMSLGGGRPYTPSPQVGTIPERPGWSGTPSPQGAEMRGGRSPRPGSSAPEHSPRTSGLGCRLHSAPNLSDLHVVRPKLPKPPTDPLGAVFSPPQASPPQPSHGLQSCRNLRGSPKLPDFLQRNPLPPILGSPTKAVPSFDFPKTPSSQNLLALLARQ
B3: ULK2 (protein)
chain: MEVVGDFEYSKRDLVGHGAFAVVFRGRHRQKTDWEVAIKSINKKNLSKSQILLGKEIKILKELQHENIVALYDVQELPNSVFLVMEYCNGGDLADYLQAKGTLSEDTIRVFLHQIAAAMRILHSKGIIHRDLKPQNILLSYANRRKSSVSGIRIKIADFGFARYLHSNMMAATLCGSPMYMAPEVIMSQHYDAKADLWSIGTVIYQCLVGKPPFQANSPQDLRMFYEKNRSLMPSIPRETSPYLANLLLGLLQRNQKDRMDFEAFFSHPFLEQGPVKKSCPVPVPMYSGSVSGSSCGSSPSCRFASPPSLPDMQHIQEENLSSPPLGPPNYLQVSKDSASTSSKNSSCDTDDFVLVPHNISSDHSCDMPVGTAGRRASNEFLVCGGQCQPTVSPHSETAPIPVPTQIRNYQRIEQNLTSTASSGTNVHGSPRSAVVRRSNTSPMGFLRPGSCSPVPADTAQTVGRRLSTGSSRPYSPSPLVGTIPEQFSQCCCGHPQGHDSRSRNSSGSPVPQAQSPQSLLSGARLQSAPTLTDIYQNKQKLRKQHSDPVCPSHTGAGYSYSPQPSRPGSLGTSPTKHLGSSPRSSDWFFKTPLPTIIGSPTKTTAPFKIPKTQASSNLLALVTRHGPAEE
B4: GRK7 (protein)
chain: MVDMGALDNLIANTAYLQARKPSDCDSKELQRRRRSLALPGLQGCAELRQKLSLNFHSLCEQQPIGRRLFRDFLATVPTFRKAATFLEDVQNWELAEEGPTKDSALQGLVATCASAPAPGNPQPFLSQAVATKCQAATTEEERVAAVTLAKAEAMAFLQEQPFKDFVTSAFYDKFLQWKLFEMQPVSDKYFTEFRVLGKGGFGEVCAVQVKNTGKMYACKKLDKKRLKKKGGEKMALLEKEILEKVSSPFIVSLAYAFESKTHLCLVMSLMNGGDLKFHIYNVGTRGLDMSRVIFYSAQIACGMLHLHELGIVYRDMKPENVLLDDLGNCRLSDLGLAVEMKGGKPITQRAGTNGYMAPEILMEKVSYSYPVDWFAMGCSIYEMVAGRTPFKDYKEKVSKEDLKQRTLQDEVKFQHDNFTEEAKDICRLFLAKKPEQRLGSREKSDDPRKHHFFKTINFPRLEAGLIEPPFVPDPSVVYAKDIAEIDDFSEVRGVEFDDKDKQFFKNFATGAVPIAWQEEIIETGLFEELNDPNRPTGCEEGNSSKSGVCLLL

Target: A366 peptide (STING peptide substrate with alanine at 366)

Protein	Activity (cpm)
B1	6600
B2	12200
B3	7380
B4	7260

Target: S366 peptide (STING peptide substrate with serine 366)

Protein	Activity (cpm)	Fold induction [fold]
B1	16700	2.52
B2	209000	17.1
B3	156000	21.1
B4	13100	1.81
